Experimental findings from article PMC9304148 are described below.

Data set [1] addresses CarHCfe (Cystobacter ferrugineus CarH), purified (Cystobacter ferrugineus). As to the kind of experiment: SEC; analytical size exclusion, Superdex200 HR 10/30; 100 ul of 50-100 uM pure apoprotein alone, in the dark; dimer by apparent Mr.
Data set [2] shares this target. Description: SEC; analytical size exclusion, Superdex200 HR 10/30; 100 ul of 50-100 uM protein after 15-min incubation with five-fold molar excess of AdoCbl, in the dark; dimer by apparent Mr.
In data set [3] the target is CarHCfu (Cystobacter fuscus CarH), purified (Cystobacter fuscus). Description: SEC; analytical size exclusion, Superdex200 HR 10/30; 100 ul of 50-100 uM pure apoprotein alone, in the dark; dimer by apparent Mr.
Data set [4] has the same target. Description: SEC; analytical size exclusion, Superdex200 HR 10/30; 100 ul of 50-100 uM protein after 15-min incubation with five-fold molar excess of AdoCbl, in the dark; dimer by apparent Mr.
Data set [5] deals with CarHCfu (Cystobacter fuscus DSM 2262 (strain as in the genome table)). Description: EMSA. Particulars: EMSA: 0.1 M KCl, 10 mM MgCl2, 25 mM Tris-HCl pH 8, 1 mM DTT, 10% glycerol, 200 ng/ul BSA, 1 ug salmon sperm DNA, 1.2 nM probe, AdoCbl 5-fold over protein, 37 °C.

As to “CarHCfe (Cystobacter ferrugineus CarH), purified (natural protein)”, the stoichiometry N in data set [1] and in data set [2] was 2 each time.

As for “CarHCfu (Cystobacter fuscus CarH), purified (natural protein)”, the stoichiometry N in data set [3] and in data set [4] was 2 throughout. Take Pcrt Cfu 170 bp: the Kd in data set [5] is 34.7 nM.
